Measurements taken from article PMC548802.

Assays:
[1] = biological target: tetranectin with substitution of threonine 149 with tyrosine (TN^T149Y) (human) (UniProt P05452); assay: ELISA
[2] = biological target: tetranectin in which lysine 148 was replaced with alanine (TN^K148A) (human) (UniProt P05452); assay: ELISA

Substance: human plasminogen (natural protein)
- ELISA specific binding (OD 450, binding to BSA subtracted) [1]: 1.73 OD 450

Substance: recombinant human angiostatin containing kringle domains 1-4 (AST^K1-4) (domain or fragment)
- ELISA specific binding (OD 450, binding to BSA subtracted) [2]: 0.06 OD 450
- ELISA specific binding (OD 450, binding to BSA subtracted) [1]: 1.83 OD 450

Substance: recombinant human angiostatin containing kringle domains 1-3 (AST^K1-3) (domain or fragment)
- ELISA specific binding (OD 450, binding to BSA subtracted) [1]: 0.43 OD 450
